The values that follow come from patent US20250250314.

MMP9, sequence (chain, as listed by the source): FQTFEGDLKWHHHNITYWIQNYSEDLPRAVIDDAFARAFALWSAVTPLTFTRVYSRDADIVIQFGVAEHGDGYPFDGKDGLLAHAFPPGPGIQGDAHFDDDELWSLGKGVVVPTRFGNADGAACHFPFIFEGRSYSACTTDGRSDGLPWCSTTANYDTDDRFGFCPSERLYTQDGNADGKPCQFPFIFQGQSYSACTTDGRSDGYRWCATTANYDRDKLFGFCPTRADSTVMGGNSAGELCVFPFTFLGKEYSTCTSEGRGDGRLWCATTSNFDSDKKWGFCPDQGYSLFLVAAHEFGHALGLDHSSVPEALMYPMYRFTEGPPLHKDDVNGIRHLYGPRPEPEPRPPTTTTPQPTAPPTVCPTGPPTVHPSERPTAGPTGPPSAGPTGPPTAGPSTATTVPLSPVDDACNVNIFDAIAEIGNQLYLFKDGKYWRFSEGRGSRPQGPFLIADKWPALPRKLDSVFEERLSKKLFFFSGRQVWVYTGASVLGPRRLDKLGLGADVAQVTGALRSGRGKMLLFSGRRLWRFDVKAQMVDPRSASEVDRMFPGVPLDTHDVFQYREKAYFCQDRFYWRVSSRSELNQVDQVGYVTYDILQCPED
MMP8, sequence (chain, as listed by the source): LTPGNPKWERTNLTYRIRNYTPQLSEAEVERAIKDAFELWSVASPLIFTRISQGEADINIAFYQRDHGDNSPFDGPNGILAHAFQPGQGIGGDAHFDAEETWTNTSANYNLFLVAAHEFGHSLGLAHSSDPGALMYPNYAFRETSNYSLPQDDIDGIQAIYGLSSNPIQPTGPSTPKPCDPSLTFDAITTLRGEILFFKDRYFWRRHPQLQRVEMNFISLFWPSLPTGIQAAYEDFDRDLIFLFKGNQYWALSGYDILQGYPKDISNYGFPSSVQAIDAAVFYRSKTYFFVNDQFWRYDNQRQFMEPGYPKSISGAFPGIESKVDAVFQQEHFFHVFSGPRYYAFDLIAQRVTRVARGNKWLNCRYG
Cathepsin L, sequence (chain, as listed by the source): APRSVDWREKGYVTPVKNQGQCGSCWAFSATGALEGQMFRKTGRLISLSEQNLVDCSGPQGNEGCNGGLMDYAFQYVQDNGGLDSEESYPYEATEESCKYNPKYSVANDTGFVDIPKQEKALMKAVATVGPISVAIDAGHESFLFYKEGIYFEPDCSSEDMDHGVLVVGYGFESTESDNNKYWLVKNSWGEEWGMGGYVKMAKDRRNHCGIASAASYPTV

This series deals with UCM12.
UCM12, sequence (chain, as listed by the source, chain 1 of 3, other chains not shown): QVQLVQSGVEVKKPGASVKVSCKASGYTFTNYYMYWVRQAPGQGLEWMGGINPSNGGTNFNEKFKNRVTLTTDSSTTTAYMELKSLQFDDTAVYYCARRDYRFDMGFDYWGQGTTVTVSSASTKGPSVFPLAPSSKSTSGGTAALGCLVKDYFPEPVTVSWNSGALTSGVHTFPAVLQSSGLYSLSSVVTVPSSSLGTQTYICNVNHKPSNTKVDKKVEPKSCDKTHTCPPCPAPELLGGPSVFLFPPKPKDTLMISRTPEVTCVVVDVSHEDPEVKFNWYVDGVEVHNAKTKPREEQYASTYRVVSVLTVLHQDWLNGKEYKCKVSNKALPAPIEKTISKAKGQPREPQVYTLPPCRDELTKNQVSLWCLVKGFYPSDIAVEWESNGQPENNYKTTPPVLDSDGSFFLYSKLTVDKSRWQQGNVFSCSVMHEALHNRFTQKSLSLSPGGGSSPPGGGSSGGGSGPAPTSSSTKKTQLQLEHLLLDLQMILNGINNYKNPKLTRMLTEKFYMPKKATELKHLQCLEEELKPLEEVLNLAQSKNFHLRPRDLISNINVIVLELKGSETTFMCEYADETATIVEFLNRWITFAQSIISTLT
UCM12, sequence (chain, as listed by the source, chain 2 of 3, other chains not shown): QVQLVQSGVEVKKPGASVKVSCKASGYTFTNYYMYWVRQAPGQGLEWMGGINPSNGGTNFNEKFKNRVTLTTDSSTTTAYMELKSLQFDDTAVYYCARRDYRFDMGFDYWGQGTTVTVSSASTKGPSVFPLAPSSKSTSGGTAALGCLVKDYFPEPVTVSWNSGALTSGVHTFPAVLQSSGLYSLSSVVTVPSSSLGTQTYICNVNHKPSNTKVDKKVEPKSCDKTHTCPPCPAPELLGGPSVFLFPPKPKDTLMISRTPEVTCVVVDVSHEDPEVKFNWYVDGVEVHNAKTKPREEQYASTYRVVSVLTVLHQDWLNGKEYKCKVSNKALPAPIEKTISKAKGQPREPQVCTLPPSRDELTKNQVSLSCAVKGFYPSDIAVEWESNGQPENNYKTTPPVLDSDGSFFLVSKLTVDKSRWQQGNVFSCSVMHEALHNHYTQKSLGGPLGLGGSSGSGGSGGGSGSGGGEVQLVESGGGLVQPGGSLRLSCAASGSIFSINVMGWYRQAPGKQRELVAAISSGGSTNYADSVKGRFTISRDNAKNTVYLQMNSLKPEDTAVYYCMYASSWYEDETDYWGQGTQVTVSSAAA
With Cathepsin L, the kcat/Km came out at 14000 M⁻¹ s⁻¹.
As to MMP8, the kcat/Km came out at 810 M⁻¹ s⁻¹.
Consider MMP9, for which the kcat/Km came out at 7900 M⁻¹ s⁻¹.
